# Data as given in patent publication US20230250557A1 (published 2023).
# Target: T1, Biotinylated human HER2 antigen comprising a portion of the HER2 extracellular domain (Acro Biosystems) (human, UniProt P04626 23-652, biotinylated (site not stated))
# T1 construct: extracellular domain; The ELISA text says only 'antigens' were coated; also called HER2 target
# Assay: ELISA, antigen coated at 1 ug/mL, purified scaffold titrated, anti-FLAG-HRP detection
# Description: (§1) Affinity of binding of individual scaffolds of the invention was estimated by ELISA. Antigens were dissolved in PBS to 1 μg/mL and 100 μl coated onto the surface of each well of a 96 well MaxiSorp Plate (Nunc) at 4° C. overnight. The next day, the wells of the MaxiSorp plate were washed with PBST buffer (PBS containing 0.05% Tween-20) and the wells blocked with 400 μl per well of 5% (w/v) skim milk powder in PBST for 2 hours. This blocking buffer was then discarded and the wells of the plate washed with PBST. […] The diluted target binding scaffold proteins were then transferred to the antigen coated MaxiSorp plate and allowed to bind to the immobilized blocked antigens for 2 hours at room temperature with gentle shaking. Following this, the diluted target binding scaffold protein solution was discarded and the wells of the MaxiSorp plate were washed 4 times with PBST. Then, 100 μl of a 1/4000 diluted solution of anti-FLAG M2 HRP conjugated antibody (Sigma) in PBST containing 2.5% (w/v) skim milk was added to each well and allowed to bind for 1 hour. This was then discarded and the plate washed 4 times with PBST. Then 100 μl of ELISA POD Substrate TMB Kit (HYPER) detection reagent (Nacalai Tesque, Japan) was added per well and the color development reaction stopped by addition of 100 μl of 1M phosphoric acid. Absorbance of each well was read at 450 nm wavelength. The EC₅₀ of binding was calculated from four parameter logistic plots of the measured absorbance values (FIGS. 17A-17B).
row,EC50 [nM],Binder
1,65,"4-7D (designed binder, CheBc scaffold clone from modified pQE-80L in E. coli, purified on cobalt resin, detected with anti-FLAG) GSHMVSGKIVVIGSSTGGPRSLDMIIPNLPKNFPAPIVVVQHGHDWSGSSGWGTKSLAQRLDSTSELTVKEAEDGEEVKPGFVYIAPGDFHLGLKAQNGKVFFFLDKSGWVSWGWTNNGVRPAVDFTLDKAAEIYKEKTIAVILTGGRYEGVLLGGDGTKGAFKVKFYGGTVIAEDKETSVVFGMPKSVIEEGYADYVLPAYKIPEKLIELV"
2,22,"3-7E (designed binder, CheBc scaffold clone from modified pQE-80L in E. coli, purified on cobalt resin, detected with anti-FLAG) GSHMVSGKIVVIGSSTGGPRSLDMIIPNLPKNFPAPIVVVQHGYYWGSWGYEGTKSLAQRLDSTSELTVKEAEDGEEVKPGFVYIAPGDFHLGLKAQNGKVFFFLDKSGRVVDGWDYDGVRPAVDFTLDKAAEIYKEKTIAVILTGGWDTGSELGGDGTKGAFKVKFYGGTVIAEDKETSVVFGMPKSVIEEGYADYVLPAYKIPEKLIELV"
3,4,"3-8A (designed binder, CheBc scaffold clone from modified pQE-80L in E. coli, purified on cobalt resin, detected with anti-FLAG) GSHMVSGKIVVIGSSTGGPRSLDMIIPNLPKNFPAPIVVVQHGSWVDGSWTWGTKSLAQRLDSTSELTVKEAEDGEEVKPGFVYIAPGDFHLGLKAQNGKVFFFLDKSGWWNGGYWVTGVRPAVDFTLDKAAEIYKEKTIAVILTGGVNLGLYNGGDGTKGAFKVKFYGGTVIAEDKETSVVFGMPKSVIEEGYADYVLPAYKIPEKLIELV"

# Target: T2, Biotinylated human PD-L1 antigen comprising a human IgG1 Fc domain (Acro Biosystems) (human, UniProt Q9NZQ7 19-238, biotinylated (site not stated))
# T2 construct: The ELISA text says only 'antigens' were coated at 1 ug/mL; also called PD-L1 target; not shown: human IgG1 Fc domain
# Assay: as above
# Description: as §1
# T2 sequence (Q9NZQ7 19-238 limits assumed): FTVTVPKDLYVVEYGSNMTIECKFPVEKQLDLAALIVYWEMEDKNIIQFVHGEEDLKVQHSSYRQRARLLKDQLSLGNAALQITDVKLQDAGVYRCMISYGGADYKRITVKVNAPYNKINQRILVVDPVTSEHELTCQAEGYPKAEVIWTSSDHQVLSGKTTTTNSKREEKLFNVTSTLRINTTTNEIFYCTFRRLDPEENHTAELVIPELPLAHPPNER
row,EC50 [nM],Binder
1,165,"1-12E (designed binder, CheBc scaffold clone from modified pQE-80L in E. coli, purified on cobalt resin, detected with anti-FLAG) GSHMVSGKIVVIGSSTGGPRSLDMIIPNLPKNFPAPIVVVQHGDGWYGGGAVGTKSLAQRLDSTSELTVKEAEDGEEVKPGFVYIAPGDFHLGLKAQNGKVFFFLDKSGGSYTGEWTWGVRPAVDFTLDKAAEIYKEKTIAVILTGGARYGDLRGGDGTKGAFKVKFYGGTVIAEDKETSVVFGMPKSVIEEGYADYVLPAYKIPEKLIELV"
2,108,"1-1B (designed binder, CheBc scaffold clone from modified pQE-80L in E. coli, purified on cobalt resin, detected with anti-FLAG) GSHMVSGKIVVIGSSTGGPRSLDMIIPNLPKNFPAPIVVVQHGEGWYGGGAVGTKSLAQRLDSTSELTVKEAEDGEEVKPGFVYIAPGDFHLGLKAQNGKVFFFLDKSGRGLRGGWSWGVRPAVDFTLDKAAEIYKEKTIAVILTGGAATGSSNGGDGTKGAFKVKFYGGTVIAEDKETSVVFGMPKSVIEEGYADYVLPAYKIPEKLIELV"
3,91,"1-12C (designed binder, CheBc scaffold clone from modified pQE-80L in E. coli, purified on cobalt resin, detected with anti-FLAG) GSHMVSGKIVVIGSSTGGPRSLDMIIPNLPKNFPAPIVVVQHGWALNGRYTLGTKSLAQRLDSTSELTVKEAEDGEEVKPGFVYIAPGDFHLGLKAQNGKVFFFLDKSGARDRGREWYGVRPAVDFTLDKAAEIYKEKTIAVILTGGYWEGDYAGGDGTKGAFKVKFYGGTVIAEDKETSVVFGMPKSVIEEGYADYVLPAYKIPEKLIELV"
